In the supplement of paper PMC10065799, “High-throughput profiling of sequence recognition by tyrosine kinases and SH2 domains using bacterial peptide display” (eLife, 2023):

Each sequence was assayed against Fyn (UniProt P06241) (assay: phosphorylation enrichment, bacterial display (enrichment ratio); higher = better substrate or ligand; peptides without Tyr show the background).
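For SH2 binding enrichment of the phosphorylated peptide, bacterial display in this document: peptide library displayed on the E. coli surface as eCPX fusions, selected cells deep-sequenced, score is each peptide's frequency after selection divided by its frequency in the input.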
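For phosphorylation enrichment, bacterial display in this document: 11-residue human phosphosite peptides and single-mutation variants displayed on the E. coli surface, counted by deep sequencing, each peptide's frequency after selection divided by its frequency in the unselected input library; frequency after pTyr selection over input frequency; kinase dosed for 20-30% of maximal phosphorylation in three min.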

Fyn, sequence (P06241 whole entry, looked up, the tested form may be a part): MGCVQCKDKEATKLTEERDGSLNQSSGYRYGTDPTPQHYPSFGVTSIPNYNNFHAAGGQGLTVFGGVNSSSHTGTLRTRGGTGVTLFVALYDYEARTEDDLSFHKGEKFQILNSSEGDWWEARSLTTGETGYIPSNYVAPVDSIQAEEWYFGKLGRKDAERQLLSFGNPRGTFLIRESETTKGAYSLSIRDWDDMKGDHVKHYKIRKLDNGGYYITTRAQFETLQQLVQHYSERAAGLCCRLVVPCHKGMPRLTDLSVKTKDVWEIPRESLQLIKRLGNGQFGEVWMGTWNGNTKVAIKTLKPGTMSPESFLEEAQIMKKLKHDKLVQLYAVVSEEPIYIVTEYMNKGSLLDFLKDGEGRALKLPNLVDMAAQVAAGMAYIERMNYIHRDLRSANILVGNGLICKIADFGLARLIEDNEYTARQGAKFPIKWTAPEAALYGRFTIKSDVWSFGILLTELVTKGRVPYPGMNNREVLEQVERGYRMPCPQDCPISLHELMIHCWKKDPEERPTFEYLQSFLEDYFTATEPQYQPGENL

Row | Sequence | phosphorylation enrichment
1 | REAAAYLHGRL [AGXT_Y297] | 0.543
2 | RESFKYFPSSL [CXXC1_Y218_YF] | 0.435
3 | FQVRRYDCDCD [CRYGS_Y21_G18V] | 0.563
4 | LLANAYIYVVQ [L1CAM_Y418] | 0.645
5 | FRRITYHNWRH [PDE6B_Y556_YF] | 0.593
6 | IRTIDYRYTVC [IDS_Y497_W502C] | 0.51
7 | IGSQRYQLGVR [RB1_Y446_K447Q] | 0.365
8 | VATRWYWSPEL [CDKL5_Y177_R178W] | 0.464
9 | AELVQYFMEHH [PTPN11_Y80_YF] | 0.623
10 | HKLSYYEYDFE [BTK_Y40] | 2.13
11 | RRNVFYFSFLL [PTEN_Y177_Y174N_YF] | 0.984
12 | YDGKDYIALNE [HLA-A_Y147] | 0.532
13 | SFLFHYADDSF [RAB3C_Y50_R49H] | 0.476
14 | EKEQNYDLTQV [ECD_Y448_E452Q] | 0.557
15 | QWLEQYTQAIE [LSP1_Y234] | 0.596
16 | PPAPRYHDSAV [LZTR1_Y119_H121D] | 0.861

The sequences below were run against EPHB2 (UniProt P29323) in the same assay as above.
EPHB2, sequence (P29323 whole entry, looked up): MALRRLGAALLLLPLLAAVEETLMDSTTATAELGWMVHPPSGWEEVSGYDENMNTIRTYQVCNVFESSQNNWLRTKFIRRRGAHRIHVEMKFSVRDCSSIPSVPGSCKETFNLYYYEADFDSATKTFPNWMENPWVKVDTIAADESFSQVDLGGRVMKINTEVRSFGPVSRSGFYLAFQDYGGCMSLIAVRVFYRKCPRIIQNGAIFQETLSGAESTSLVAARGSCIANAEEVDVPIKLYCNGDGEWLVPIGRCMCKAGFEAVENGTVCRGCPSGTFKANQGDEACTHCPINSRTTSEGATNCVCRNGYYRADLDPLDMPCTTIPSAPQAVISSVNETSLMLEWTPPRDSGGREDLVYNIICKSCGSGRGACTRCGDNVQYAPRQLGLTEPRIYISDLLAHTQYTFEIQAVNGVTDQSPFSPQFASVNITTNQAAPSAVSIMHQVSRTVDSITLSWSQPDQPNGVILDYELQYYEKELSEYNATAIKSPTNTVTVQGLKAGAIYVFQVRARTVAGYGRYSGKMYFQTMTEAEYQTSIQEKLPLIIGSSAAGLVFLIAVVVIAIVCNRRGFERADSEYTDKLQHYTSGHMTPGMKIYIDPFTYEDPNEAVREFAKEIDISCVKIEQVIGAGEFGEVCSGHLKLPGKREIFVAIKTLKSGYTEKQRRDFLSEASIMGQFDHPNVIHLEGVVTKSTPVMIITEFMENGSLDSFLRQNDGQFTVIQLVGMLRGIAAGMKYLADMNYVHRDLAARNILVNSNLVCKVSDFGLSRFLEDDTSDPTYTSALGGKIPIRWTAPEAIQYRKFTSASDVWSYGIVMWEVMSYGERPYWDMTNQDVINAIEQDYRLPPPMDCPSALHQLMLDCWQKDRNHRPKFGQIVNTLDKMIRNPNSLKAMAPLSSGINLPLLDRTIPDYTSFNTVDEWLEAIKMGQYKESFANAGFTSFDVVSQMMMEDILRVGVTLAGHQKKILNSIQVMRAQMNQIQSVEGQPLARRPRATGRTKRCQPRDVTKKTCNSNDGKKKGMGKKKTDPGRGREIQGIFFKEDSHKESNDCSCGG

Row | Sequence | phosphorylation enrichment
17 | REAAAYLHGRL [AGXT_Y297] | 0.571
18 | RESFKYFPSSL [CXXC1_Y218_YF] | 0.421
19 | FQVRRYDCDCD [CRYGS_Y21_G18V] | 0.592
20 | LLANAYIYVVQ [L1CAM_Y418] | 0.69
21 | FRRITYHNWRH [PDE6B_Y556_YF] | 0.515
22 | IRTIDYRYTVC [IDS_Y497_W502C] | 0.52
23 | IGSQRYQLGVR [RB1_Y446_K447Q] | 0.303
24 | VATRWYWSPEL [CDKL5_Y177_R178W] | 3.81
25 | AELVQYFMEHH [PTPN11_Y80_YF] | 0.545
26 | HKLSYYEYDFE [BTK_Y40] | 1.38
27 | RRNVFYFSFLL [PTEN_Y177_Y174N_YF] | 1.03
28 | YDGKDYIALNE [HLA-A_Y147] | 0.792
29 | SFLFHYADDSF [RAB3C_Y50_R49H] | 0.549
30 | EKEQNYDLTQV [ECD_Y448_E452Q] | 0.612
31 | QWLEQYTQAIE [LSP1_Y234] | 0.623
32 | PPAPRYHDSAV [LZTR1_Y119_H121D] | 0.476

Each sequence was assayed against EPHB1 (UniProt P54762) in the same assay as above.
EPHB1, sequence (P54762 whole entry, looked up): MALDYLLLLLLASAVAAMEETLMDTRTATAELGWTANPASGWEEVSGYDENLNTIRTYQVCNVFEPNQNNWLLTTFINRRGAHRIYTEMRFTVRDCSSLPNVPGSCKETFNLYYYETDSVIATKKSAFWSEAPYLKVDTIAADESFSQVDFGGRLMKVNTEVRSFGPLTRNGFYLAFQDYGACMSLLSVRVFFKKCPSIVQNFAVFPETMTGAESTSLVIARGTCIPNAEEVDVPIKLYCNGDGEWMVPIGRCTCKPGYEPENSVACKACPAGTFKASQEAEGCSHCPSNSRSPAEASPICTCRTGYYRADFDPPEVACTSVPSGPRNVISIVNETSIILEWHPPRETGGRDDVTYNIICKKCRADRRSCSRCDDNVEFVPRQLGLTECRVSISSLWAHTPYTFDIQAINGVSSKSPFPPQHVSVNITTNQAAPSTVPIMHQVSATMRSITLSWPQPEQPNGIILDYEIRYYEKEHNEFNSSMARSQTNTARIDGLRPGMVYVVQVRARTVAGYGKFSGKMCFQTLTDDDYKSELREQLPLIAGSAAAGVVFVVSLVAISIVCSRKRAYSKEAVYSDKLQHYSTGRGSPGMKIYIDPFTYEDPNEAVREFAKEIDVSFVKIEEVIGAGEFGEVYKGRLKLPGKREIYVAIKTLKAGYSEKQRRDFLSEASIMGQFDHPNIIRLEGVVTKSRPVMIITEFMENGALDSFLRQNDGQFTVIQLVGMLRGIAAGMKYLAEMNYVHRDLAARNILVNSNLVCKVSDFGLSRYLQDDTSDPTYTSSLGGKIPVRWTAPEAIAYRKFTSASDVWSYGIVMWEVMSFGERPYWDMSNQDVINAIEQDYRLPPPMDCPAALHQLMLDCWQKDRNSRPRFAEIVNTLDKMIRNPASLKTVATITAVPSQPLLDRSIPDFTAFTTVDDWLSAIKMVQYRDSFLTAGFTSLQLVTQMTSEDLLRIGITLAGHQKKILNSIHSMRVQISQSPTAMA

Row | Sequence | phosphorylation enrichment
33 | REAAAYLHGRL [AGXT_Y297] | 0.322
34 | RESFKYFPSSL [CXXC1_Y218_YF] | 0.424
35 | FQVRRYDCDCD [CRYGS_Y21_G18V] | 0.583
36 | LLANAYIYVVQ [L1CAM_Y418] | 0.847
37 | FRRITYHNWRH [PDE6B_Y556_YF] | 0.309
38 | IRTIDYRYTVC [IDS_Y497_W502C] | 0.653
39 | IGSQRYQLGVR [RB1_Y446_K447Q] | 0.315
40 | VATRWYWSPEL [CDKL5_Y177_R178W] | 4.61
41 | AELVQYFMEHH [PTPN11_Y80_YF] | 0.618
42 | HKLSYYEYDFE [BTK_Y40] | 2.02
43 | RRNVFYFSFLL [PTEN_Y177_Y174N_YF] | 0.998
44 | YDGKDYIALNE [HLA-A_Y147] | 1.06
45 | SFLFHYADDSF [RAB3C_Y50_R49H] | 0.498
46 | EKEQNYDLTQV [ECD_Y448_E452Q] | 0.513
47 | QWLEQYTQAIE [LSP1_Y234] | 0.579
48 | PPAPRYHDSAV [LZTR1_Y119_H121D] | 0.658

What follows are sequences tested against FGFR3 (UniProt P22607) in the same assay as above.
FGFR3, sequence (P22607 whole entry, looked up): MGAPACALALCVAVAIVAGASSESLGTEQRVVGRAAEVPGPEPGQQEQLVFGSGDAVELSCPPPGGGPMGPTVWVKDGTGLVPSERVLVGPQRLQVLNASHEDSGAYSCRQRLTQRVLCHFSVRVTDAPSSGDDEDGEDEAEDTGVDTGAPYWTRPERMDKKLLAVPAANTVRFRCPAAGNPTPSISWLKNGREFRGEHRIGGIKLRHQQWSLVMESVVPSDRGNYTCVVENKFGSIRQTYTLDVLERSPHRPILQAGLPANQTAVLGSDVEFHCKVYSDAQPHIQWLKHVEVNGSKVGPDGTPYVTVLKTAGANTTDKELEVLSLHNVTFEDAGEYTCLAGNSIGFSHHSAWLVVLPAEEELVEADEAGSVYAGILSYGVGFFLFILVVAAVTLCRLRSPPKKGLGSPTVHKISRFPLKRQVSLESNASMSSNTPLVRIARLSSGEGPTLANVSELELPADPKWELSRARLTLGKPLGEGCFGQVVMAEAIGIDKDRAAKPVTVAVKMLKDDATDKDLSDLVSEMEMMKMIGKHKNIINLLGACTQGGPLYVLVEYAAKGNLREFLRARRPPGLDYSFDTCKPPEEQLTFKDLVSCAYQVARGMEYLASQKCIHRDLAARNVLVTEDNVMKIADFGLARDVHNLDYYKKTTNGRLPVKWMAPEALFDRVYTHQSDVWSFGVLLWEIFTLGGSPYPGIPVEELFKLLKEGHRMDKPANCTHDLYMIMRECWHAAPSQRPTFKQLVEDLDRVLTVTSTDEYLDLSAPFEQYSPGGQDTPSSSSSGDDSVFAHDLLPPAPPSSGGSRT

Row | Sequence | phosphorylation enrichment
49 | REAAAYLHGRL [AGXT_Y297] | 0.595
50 | RESFKYFPSSL [CXXC1_Y218_YF] | 0.547
51 | FQVRRYDCDCD [CRYGS_Y21_G18V] | 0.758
52 | LLANAYIYVVQ [L1CAM_Y418] | 1.01
53 | FRRITYHNWRH [PDE6B_Y556_YF] | 0.458
54 | IRTIDYRYTVC [IDS_Y497_W502C] | 0.754
55 | IGSQRYQLGVR [RB1_Y446_K447Q] | 0.388
56 | VATRWYWSPEL [CDKL5_Y177_R178W] | 5.13
57 | AELVQYFMEHH [PTPN11_Y80_YF] | 0.762
58 | HKLSYYEYDFE [BTK_Y40] | 4.03
59 | RRNVFYFSFLL [PTEN_Y177_Y174N_YF] | 0.709
60 | YDGKDYIALNE [HLA-A_Y147] | 0.953
61 | SFLFHYADDSF [RAB3C_Y50_R49H] | 0.671
62 | EKEQNYDLTQV [ECD_Y448_E452Q] | 0.782
63 | QWLEQYTQAIE [LSP1_Y234] | 0.589
64 | PPAPRYHDSAV [LZTR1_Y119_H121D] | 0.711

The sequences below were run against Fes (UniProt P07332) in the same assay as above.
Fes, sequence (P07332 whole entry, looked up): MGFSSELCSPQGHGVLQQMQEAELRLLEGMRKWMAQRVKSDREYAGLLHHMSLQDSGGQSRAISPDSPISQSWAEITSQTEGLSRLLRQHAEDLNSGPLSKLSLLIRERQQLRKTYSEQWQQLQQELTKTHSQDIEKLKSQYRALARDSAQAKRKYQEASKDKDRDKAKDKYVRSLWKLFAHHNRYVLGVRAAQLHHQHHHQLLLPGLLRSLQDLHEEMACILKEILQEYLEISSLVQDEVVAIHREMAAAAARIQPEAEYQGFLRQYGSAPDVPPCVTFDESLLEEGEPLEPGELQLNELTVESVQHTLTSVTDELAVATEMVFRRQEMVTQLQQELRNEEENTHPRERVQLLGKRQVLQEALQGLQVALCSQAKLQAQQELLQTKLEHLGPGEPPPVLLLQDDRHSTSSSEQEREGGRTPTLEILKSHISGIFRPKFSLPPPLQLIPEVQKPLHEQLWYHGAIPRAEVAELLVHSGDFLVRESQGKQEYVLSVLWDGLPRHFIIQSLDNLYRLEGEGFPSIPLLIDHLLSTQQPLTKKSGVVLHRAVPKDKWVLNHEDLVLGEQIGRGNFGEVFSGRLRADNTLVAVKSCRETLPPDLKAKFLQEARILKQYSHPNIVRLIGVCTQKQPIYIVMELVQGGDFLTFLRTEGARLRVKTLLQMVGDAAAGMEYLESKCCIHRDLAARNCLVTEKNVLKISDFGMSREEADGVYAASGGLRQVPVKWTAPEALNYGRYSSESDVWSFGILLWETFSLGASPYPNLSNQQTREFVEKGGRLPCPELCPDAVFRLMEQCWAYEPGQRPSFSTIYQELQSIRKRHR

Row | Sequence | phosphorylation enrichment
65 | REAAAYLHGRL [AGXT_Y297] | 1.03
66 | RESFKYFPSSL [CXXC1_Y218_YF] | 0.567
67 | FQVRRYDCDCD [CRYGS_Y21_G18V] | 1.32
68 | LLANAYIYVVQ [L1CAM_Y418] | 1.52
69 | FRRITYHNWRH [PDE6B_Y556_YF] | 0.635
70 | IRTIDYRYTVC [IDS_Y497_W502C] | 1.02
71 | IGSQRYQLGVR [RB1_Y446_K447Q] | 0.534
72 | VATRWYWSPEL [CDKL5_Y177_R178W] | 1.15
73 | AELVQYFMEHH [PTPN11_Y80_YF] | 1.08
74 | HKLSYYEYDFE [BTK_Y40] | 2.13
75 | RRNVFYFSFLL [PTEN_Y177_Y174N_YF] | 1.62
76 | YDGKDYIALNE [HLA-A_Y147] | 1.27
77 | SFLFHYADDSF [RAB3C_Y50_R49H] | 1.12
78 | EKEQNYDLTQV [ECD_Y448_E452Q] | 1.33
79 | QWLEQYTQAIE [LSP1_Y234] | 1.15
80 | PPAPRYHDSAV [LZTR1_Y119_H121D] | 0.877

These sequences were tested against Grb2 SH2 (UniProt P62993) (assay: SH2 binding enrichment of the phosphorylated peptide, bacterial display (enrichment ratio); higher = better substrate or ligand; peptides without Tyr show the background).

Row | SH2 binding enrichment | Sequence
81 | 0.475 | FRRITYHNWRH [PDE6B_Y556_YF]
82 | 1.07 | IGSQRYQLGVR [RB1_Y446_K447Q]
83 | 1.05 | AELVQYFMEHH [PTPN11_Y80_YF]
84 | 1.34 | RRNVFYFSFLL [PTEN_Y177_Y174N_YF]
85 | 1.09 | SFLFHYADDSF [RAB3C_Y50_R49H]
86 | 0.729 | PPAPRYHDSAV [LZTR1_Y119_H121D]

Continued, sequence first:

Row | Sequence | SH2 binding enrichment
87 | REAAAYLHGRL [AGXT_Y297] | 0.956
88 | RESFKYFPSSL [CXXC1_Y218_YF] | 0.955
89 | FQVRRYDCDCD [CRYGS_Y21_G18V] | 0.921
90 | LLANAYIYVVQ [L1CAM_Y418] | 0.9
91 | IRTIDYRYTVC [IDS_Y497_W502C] | 0.884
92 | VATRWYWSPEL [CDKL5_Y177_R178W] | 0.971
93 | HKLSYYEYDFE [BTK_Y40] | 1.05
94 | YDGKDYIALNE [HLA-A_Y147] | 0.692
95 | EKEQNYDLTQV [ECD_Y448_E452Q] | 0.79
96 | QWLEQYTQAIE [LSP1_Y234] | 0.876

These sequences were tested against c-Src SH2 in the same assay as above.

Row | SH2 binding enrichment | Sequence
97 | 0.399 | FRRITYHNWRH [PDE6B_Y556_YF]
98 | 0.66 | IGSQRYQLGVR [RB1_Y446_K447Q]
99 | 0.473 | AELVQYFMEHH [PTPN11_Y80_YF]
100 | 0.893 | RRNVFYFSFLL [PTEN_Y177_Y174N_YF]
101 | 1.55 | SFLFHYADDSF [RAB3C_Y50_R49H]
102 | 0.551 | PPAPRYHDSAV [LZTR1_Y119_H121D]

The next lines start with the sequence.

Row | Sequence | SH2 binding enrichment
103 | REAAAYLHGRL [AGXT_Y297] | 0.557
104 | RESFKYFPSSL [CXXC1_Y218_YF] | 0.367
105 | FQVRRYDCDCD [CRYGS_Y21_G18V] | 0.891
106 | LLANAYIYVVQ [L1CAM_Y418] | 0.484
107 | IRTIDYRYTVC [IDS_Y497_W502C] | 2.77
108 | VATRWYWSPEL [CDKL5_Y177_R178W] | 1.94
109 | HKLSYYEYDFE [BTK_Y40] | 3.4
110 | YDGKDYIALNE [HLA-A_Y147] | 0.452
111 | EKEQNYDLTQV [ECD_Y448_E452Q] | 0.486
112 | QWLEQYTQAIE [LSP1_Y234] | 0.709

Each sequence was assayed against SHP2-C SH2 in the same assay as above.

Row | SH2 binding enrichment | Sequence
113 | 0.456 | FRRITYHNWRH [PDE6B_Y556_YF]
114 | 0.887 | IGSQRYQLGVR [RB1_Y446_K447Q]
115 | 0.84 | AELVQYFMEHH [PTPN11_Y80_YF]
116 | 0.691 | RRNVFYFSFLL [PTEN_Y177_Y174N_YF]
117 | 1.08 | SFLFHYADDSF [RAB3C_Y50_R49H]
118 | 0.508 | PPAPRYHDSAV [LZTR1_Y119_H121D]

More lines, now with the values behind:

Row | Sequence | SH2 binding enrichment
119 | REAAAYLHGRL [AGXT_Y297] | 1.03
120 | RESFKYFPSSL [CXXC1_Y218_YF] | 0.565
121 | FQVRRYDCDCD [CRYGS_Y21_G18V] | 0.854
122 | LLANAYIYVVQ [L1CAM_Y418] | 0.787
123 | IRTIDYRYTVC [IDS_Y497_W502C] | 0.948
124 | VATRWYWSPEL [CDKL5_Y177_R178W] | 0.731
125 | HKLSYYEYDFE [BTK_Y40] | 0.941
126 | YDGKDYIALNE [HLA-A_Y147] | 0.604
127 | EKEQNYDLTQV [ECD_Y448_E452Q] | 0.508
128 | QWLEQYTQAIE [LSP1_Y234] | 0.574
